Changes are numbered by the printed parent chain. “Also recorded” adds a separate entry of the source.
System: luciferase target gene expression in HEK 293 cells (aptamer-modulated RNase P cleavage of mRNA)
Test: Firefly luciferase assay of transfected cells treated with or without aptamer ligand
Assay type: cell-based
Settings: for induction fold of luciferase expression, guanosine-treated versus solvent control-treated cells: 500 μM guanosine vs 0.5% DMSO; for reduction in luciferase activity compared to control construct (Con8): absence of guanosine; for luciferase activity as % of control construct: presence of guanosine (500 μM)
Protocol: Firefly luciferase assay of cultured cells: 3.5×10^4 HEK 293 cells were plated in 96-well flat bottom plate the day before transfection. Plasmid DNA (500 ng) was added to a tube or a 96-well U-bottom plate. Separately, TransIT-293 reagent (Minis; 1.4 μL) was added to 50 μL opti-mem I media (Life Technologies) and allowed to sit for 5 minutes at room temperature (“RT”). Then, 50 μL of this diluted transfection reagent was added to the DNA, mixed, and incubated at RT for 20 min. Finally, 7 μL of this solution was added to a well of cells in a 96-well plate. 4 hours after transfection, medium containing transfection solution was replaced with fresh medium. 24 hours after media change, plates were removed from the incubator, and equilibrated to RT for several minutes on a lab bench, then aspirated. Glo-lysis buffer (Promega, 100 μL, RT) was added, and the plates allowed to remain at RT for at least 5 minutes. Then, the well contents were mixed by 50 μL trituration, and 20 μL of each sample was mixed with 20 μL of bright-glo reagent (Promega) that had been diluted to 10% in glo-lysis buffer. 96 wells were spaced on an opaque white 384-well plate. Following a 5-min incubation at RT, luminescence was measured using a Tecan machine with 500 mSec read time. The luciferase activity was expressed as mean arbitrary light unit (ALU)±S.D.
Plasmid constructs: oligonucleotide fragments containing mascRNA and guanine aptamer sequences (Mandal, M, et al., Cell 113, 577-586 (2003), incorporated herein by reference) were synthesized (IDT) and cloned into a luciferase (Luci) expression construct (Con8) in the 3′ UTR region using compatible restriction sites BamHI and XhoI. All the constructs were verified by DNA sequencing (Genewiz).
Firefly luciferase assay of cultured cells: cells were transfected as described in Example 1. Four hours after transfection, medium containing transfection solution was replaced by medium with either 0.5% DMSO as solvent control or 500 μM guanosine (Sigma) as aptamer ligand. Twenty-two to twenty-four hours after treatment, a luciferase assay was performed as described in Example 1.
Plasmid construction: a DNA fragment containing sequences for the guanine aptamer xpt-G and human arginine pre-tRNA (Nashimoto M. N. et al. Long 5′ leaders inhibit removal of a 3′ trailer from a precursor tRNA by mammalian tRNA 3′ processing endoribonuclease. Nucleic Acids Research, 1999; 27(13): 2770-2776) were synthesized (IDT). The synthesized DNA fragments were digested with BamHI and XhoI restriction enzymes and cloned into the Con8 construct digested with the same restriction enzymes. Construct sequences were verified by DNA sequencing (Genewiz).
Plasmid construction: a DNA fragment containing sequences for the adenine aptamer ydhl-A (M. Mandal and R. R. Breaker, Adenine riboswitches and gene activation by disruption of a transcription terminator. Nature Structural & Molecular Biology. 2004; 11: 29-35, incorporated herein by reference) or theophylline aptamer (G. R. Zimmerman, et al. Interlocking structural motifs mediate molecular discrimination by a theophylline-binding RNA. Nature Structural Biology. 1997; 4: 644-649, incorporated herein by reference), and mascRNA sequence were synthesized (IDT). The synthesized DNA fragments were digested with BamHI and XhoI restriction enzymes and cloned into Con8 digested with the same restriction enzymes. Construct sequences were verified by DNA sequencing (Genewiz).
Four hours after transfection, the media was aspirated, and new media with NaOH (1 mM) as solvent or 1 mM adenine (Calbiochem), or 3 mM theophylline (Sigma) was added. The induction fold was expressed as the quotient of luciferase activity obtained in the presence of aptamer ligand divided by the value obtained in the absence of the aptamer ligand. […]

B1: MG1: SEQ ID NO: 1; guanine aptamer immediately downstream of mascRNA in luciferase 3' UTR (nucleic acid)
chain: CCTCATAAAGGCCAAGAAGGGCGGAAAGATCGCCGTGTAAGGATCCAAGACGAGCTGTACAAGTAAAGCGGCCAATTCGGACAAAAACGAGACGCTGGTGGCTGGCACTCCTGGTTTCCAGGACGGGGTTCAAGTCCCTGCGGTGTCTATAATCGCGTGGATATGGCACGCAAGTTTCTACCGGGCACCGTAAATGTCCGACTAGACACCATCTAGAGTCGACCTGCAGGCATGCAAGCTTCAGCTGCTCGAGGGCCCAGATCTAATTCACCCCACCAGTGCAGGCTGCCTATCAG
induction fold of luciferase expression, guanosine-treated versus solvent control-treated cells: 2.1 fold
reduction in luciferase activity compared to control construct (Con8): 32%
luciferase activity as % of Luci control construct (absence of guanosine (DMSO solvent control)): about 68%
luciferase activity as % of control construct: 100%

B2: GM5: SEQ ID NO: 7; zero nucleotides between effector region stem and mascRNA acceptor stem (nucleic acid)
chain: CCTCATAAAGGCCAAGAAGGGCGGAAAGATCGCCGTGTAAGGATCCAAGACGAGCTGTACAAGTAAAGAAGAGCTAATGTATAATCGCGTGGATATGGCACGCAAGTTTCTACCGGGCACCGTAAATGTCCGACTACATTAGCGACGCTGGTGGCTGGCACTCCTGGTTTCCAGGACGGGGTTCAAGTCCCTGCGGTGTCTTTGCTTGGATCGGCCGCGACTCTAGAGTCGACCTGCAGGCATGCAAGCTTCAGCTGCTCGAGGGCCCAGATCTAATTCACCCCACCAGTGCAGGCTGCCTATCAG
basal level luciferase activity (absence of guanine): lower level of luciferase activity

B3: GM4_2C: SEQ ID NO: 6; two copies of GM4 inserted in tandem in the 3' UTR (nucleic acid)
chain: CCTCATAAAGGCCAAGAAGGGCGGAAAGATCGCCGTGTAAGGATCCAAGACGAGCTGTACAAGTAAAGAAGACGTAATGTATAATCGCGTGGATATGGCACGCAAGTTTCTACCGGGCACCGTAAATGTCCGACTACATTACGACGCTGGTGGCTGGCACTCCTGGTTTCCAGGACGGGGTTCAAGTCCCTGCGGTGTCTTTGCTTGGATCGGCCGCGACTCTAGAGTCGACCTGCAGGCATGCAAGCTTCAGAAGTAAAGAAGACGTAATGTATAATCGCGTGGATATGGCACGCAAGTTTCTACCGGGCACCGTAAATGTCCGACTACATTACGACGCTGGTGGCTGGCACTCCTGGTTTCCAGGACGGGGTTCAAGTCCCTGCGGTGTCTTTGCTTGGATCGGCCGCGACTCTAGAGTCGACCTGCAGGCATGCAAGCTTCAGCTGCTCGAGGGCCCAGATCTAATTCACCCCACCAGTGCAGGCTGCCTATCAG
basal level luciferase expression as % of control construct Con8 (absence of guanine): 18%
induction fold of luciferase, with guanine versus without guanine (guanine treatment): 3.95 fold
induced luciferase expression as % of Con8 (presence of guanine treatment): 51%

B4: GM6: SEQ ID NO: 8; 1 nucleotide between effector region stem and mascRNA acceptor stem (nucleic acid)
chain: CCTCATAAAGGCCAAGAAGGGCGGAAAGATCGCCGTGTAAGGATCCAAGACGAGCTGTACAAGTAAAGAAGAGCTAATGTATAATCGCGTGGATATGGCACGCAAGTTTCTACCGGGCACCGTAAATGTCCGACTACATTAGCAGACGCTGGTGGCTGGCACTCCTGGTTTCCAGGACGGGGTTCAAGTCCCTGCGGTGTCTTTGCTTGGATCGGCCGCGACTCTAGAGTCGACCTGCAGGCATGCAAGCTTCAGCTGCTCGAGGGCCCAGATCTAATTCACCCCACCAGTGCAGGCTGCCTATCAG
luciferase expression in response to guanine treatment (guanine treatment): upregulate luciferase expression

B5: GM3: SEQ ID NO: 4; 5-nt sequence between effector region stem and acceptor stem of mascRNA (nucleic acid)
chain: CCTCATAAAGGCCAAGAAGGGCGGAAAGATCGCCGTGTAAGGATCCAAGACGAGCTGTACAAGTAAAGCGGCCGGACAAAATAATCGCGTGGATATGGCACGCAAGTTTCTACCGGGCACCGTAAATGTCCGACTTTTGTCCAACGAGACGCTGGTGGCTGGCACTCCTGGTTTCCAGGACGGGGTTCAAGTCCCTGCGGTGTCTTTGCTTGGATCGGCCGCGACTCTAGAGTCGACCTGCAGGCATGCAAGCTTCAGCTGCTCGAGGGCCCAGATCTAATTCACCCCACCAGTGCAGGCTGCCTATCAG
luciferase expression upon guanosine treatment (guanosine treatment): no increase in luciferase expression; also recorded: does not regulate luciferase gene expression

B6: GM7: SEQ ID NO: 9; 2 nucleotides between effector region stem and mascRNA acceptor stem (nucleic acid)
chain: CCTCATAAAGGCCAAGAAGGGCGGAAAGATCGCCGTGTAAGGATCCAAGACGAGCTGTACAAGTAAAGAAGAGCTAATGTATAATCGCGTGGATATGGCACGCAAGTTTCTACCGGGCACCGTAAATGTCCGACTACATTAGCGAGACGCTGGTGGCTGGCACTCCTGGTTTCCAGGACGGGGTTCAAGTCCCTGCGGTGTCTTTGCTTGGATCGGCCGCGACTCTAGAGTCGACCTGCAGGCATGCAAGCTTCAGCTGCTCGAGGGCCCAGATCTAATTCACCCCACCAGTGCAGGCTGCCTATCAG
luciferase expression in response to guanine treatment (guanine treatment): upregulate luciferase expression

B7: GM1: SEQ ID NO: 2; guanine aptamer upstream of mascRNA, 7-nucleotide leader in effector region stem (nucleic acid)
chain: CCTCATAAAGGCCAAGAAGGGCGGAAAGATCGCCGTGTAAGGATCCAAGACGAGCTGTACAAGTAAAGCGGCCGTAATGTATAATCGCGTGGATATGGCACGCAAGTTTCTACCGGGCACCGTAAATGTCCGACTACATTACGACGCTGGTGGCTGGCACTCCTGGTTTCCAGGACGGGGTTCAAGTCCCTGCGGTGTCTTTGCTTGGATCGGCCGCGACTCTAGAGTCGACCTGCAGGCATGCAAGCTTCAGCTGCTCGAGGGCCCAGATCTAATTCACCCCACCAGTGCAGGCTGCCTATCAG
induction fold of luciferase expression, guanosine-treated versus solvent control-treated cells: 2.9 fold
reduction in luciferase activity compared to control construct (Con8): 52%
luciferase activity as % of control construct: ~100%

B8: GM4: SEQ ID NO: 5; GM1 with CGGC upstream of the effector region mutated to AAGA (nucleic acid)
chain: B7 chain with C69A, G70A, C72A
basal level luciferase activity (absence of guanine): lower level of luciferase activity than GM1

B9: GM2: SEQ ID NO: 3; guanine aptamer upstream of mascRNA, 6-nucleotide leader in effector region stem (nucleic acid)
chain: CCTCATAAAGGCCAAGAAGGGCGGAAAGATCGCCGTGTAAGGATCCAAGACGAGCTGTACAAGTAAAGCGGCCCGATCATATAATCGCGTGGATATGGCACGCAAGTTTCTACCGGGCACCGTAAATGTCCGACTATGGTCGACGCTGGTGGCTGGCACTCCTGGTTTCCAGGACGGGGTTCAAGTCCCTGCGGTGTCTTTGCTTGGATCGGCCGCGACTCTAGAGTCGACCTGCAGGCATGCAAGCTTCAGCTGCTCGAGGGCCCAGATCTAATTCACCCCACCAGTGCAGGCTGCCTATCAG
induction fold of luciferase expression, guanosine-treated versus solvent control-treated cells: 1.9 fold
reduction in luciferase activity compared to control construct (Con8): 40%
